Measurements from patent publication US20240342207, “MODIFIED NUCLEIC ACID COMPOSITIONS AND ASSOCIATED METHODS FOR TREATMENT OF PHENYLKETONURIA” (BOARD OF REGENTS, THE UNIVERSITY OF TEXAS SYSTEM, published 2024).

What was measured:
Experiment in all cases: EMSA; one of 13 of 17 binding mutants; affinity not decreased
Details in all cases: tags: His-tag, E. coli; stem-loop
PAH F39L = target: T1, PAH F39L (Homo sapiens, UniProt P00439 P00439:1-452, F39L)
T1 sequence: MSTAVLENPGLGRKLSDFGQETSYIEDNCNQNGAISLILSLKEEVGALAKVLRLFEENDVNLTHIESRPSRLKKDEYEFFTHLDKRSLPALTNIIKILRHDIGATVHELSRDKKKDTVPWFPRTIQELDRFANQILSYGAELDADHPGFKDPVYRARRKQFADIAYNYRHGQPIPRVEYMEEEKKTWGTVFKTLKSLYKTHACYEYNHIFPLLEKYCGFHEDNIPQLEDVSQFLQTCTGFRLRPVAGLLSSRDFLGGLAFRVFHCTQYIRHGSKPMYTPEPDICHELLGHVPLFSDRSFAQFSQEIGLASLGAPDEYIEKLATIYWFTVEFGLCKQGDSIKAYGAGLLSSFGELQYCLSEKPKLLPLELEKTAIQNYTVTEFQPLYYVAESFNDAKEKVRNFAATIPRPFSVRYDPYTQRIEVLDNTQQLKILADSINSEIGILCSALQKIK

PAH A300S = target: T2, PAH A300S (Homo sapiens, UniProt P00439 P00439:1-452, A300S)
T2 sequence: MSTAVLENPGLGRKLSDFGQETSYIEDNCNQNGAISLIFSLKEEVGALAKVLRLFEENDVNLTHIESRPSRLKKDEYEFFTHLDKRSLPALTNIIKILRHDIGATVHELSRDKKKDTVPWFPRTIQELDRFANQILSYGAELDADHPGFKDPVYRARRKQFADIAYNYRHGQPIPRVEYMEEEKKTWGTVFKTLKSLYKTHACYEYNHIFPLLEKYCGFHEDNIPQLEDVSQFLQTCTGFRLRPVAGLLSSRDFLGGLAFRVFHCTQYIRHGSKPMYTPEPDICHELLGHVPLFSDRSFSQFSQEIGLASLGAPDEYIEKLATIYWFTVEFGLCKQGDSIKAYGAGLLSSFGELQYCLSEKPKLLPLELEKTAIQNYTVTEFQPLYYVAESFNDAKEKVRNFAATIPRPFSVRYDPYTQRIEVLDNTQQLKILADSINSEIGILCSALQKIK

PAH I318T = target: T3, PAH I318T (Homo sapiens, UniProt P00439 P00439:1-452, I318T)
T3 sequence: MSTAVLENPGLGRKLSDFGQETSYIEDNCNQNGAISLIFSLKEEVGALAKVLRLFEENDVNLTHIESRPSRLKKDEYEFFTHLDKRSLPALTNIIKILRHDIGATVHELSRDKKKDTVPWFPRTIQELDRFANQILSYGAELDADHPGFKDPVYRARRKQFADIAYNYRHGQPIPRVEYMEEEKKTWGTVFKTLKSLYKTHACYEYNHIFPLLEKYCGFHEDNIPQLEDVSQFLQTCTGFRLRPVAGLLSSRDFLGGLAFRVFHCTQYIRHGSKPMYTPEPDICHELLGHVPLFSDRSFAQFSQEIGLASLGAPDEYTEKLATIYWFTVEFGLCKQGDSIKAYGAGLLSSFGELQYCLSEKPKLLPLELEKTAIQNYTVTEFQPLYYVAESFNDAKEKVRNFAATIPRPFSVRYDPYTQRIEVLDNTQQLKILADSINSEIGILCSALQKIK

PAH F55L = target: T4, PAH F55L (Homo sapiens, UniProt P00439 P00439:1-452, F55L)
T4 sequence: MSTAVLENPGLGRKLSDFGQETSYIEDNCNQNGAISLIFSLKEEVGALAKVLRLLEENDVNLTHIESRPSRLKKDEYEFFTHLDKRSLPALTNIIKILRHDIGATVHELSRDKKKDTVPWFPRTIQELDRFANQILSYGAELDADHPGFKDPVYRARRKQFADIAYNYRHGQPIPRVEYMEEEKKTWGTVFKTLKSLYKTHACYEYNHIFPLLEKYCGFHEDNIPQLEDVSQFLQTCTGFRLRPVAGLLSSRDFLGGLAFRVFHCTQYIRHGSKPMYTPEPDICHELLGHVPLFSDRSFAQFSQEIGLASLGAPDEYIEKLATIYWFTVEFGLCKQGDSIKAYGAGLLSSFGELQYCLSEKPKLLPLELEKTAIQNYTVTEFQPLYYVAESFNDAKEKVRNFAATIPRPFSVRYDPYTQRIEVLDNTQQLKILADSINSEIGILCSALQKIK

PAH P275L = target: T5, PAH P275L (Homo sapiens, UniProt P00439 P00439:1-452, P275L)
T5 sequence: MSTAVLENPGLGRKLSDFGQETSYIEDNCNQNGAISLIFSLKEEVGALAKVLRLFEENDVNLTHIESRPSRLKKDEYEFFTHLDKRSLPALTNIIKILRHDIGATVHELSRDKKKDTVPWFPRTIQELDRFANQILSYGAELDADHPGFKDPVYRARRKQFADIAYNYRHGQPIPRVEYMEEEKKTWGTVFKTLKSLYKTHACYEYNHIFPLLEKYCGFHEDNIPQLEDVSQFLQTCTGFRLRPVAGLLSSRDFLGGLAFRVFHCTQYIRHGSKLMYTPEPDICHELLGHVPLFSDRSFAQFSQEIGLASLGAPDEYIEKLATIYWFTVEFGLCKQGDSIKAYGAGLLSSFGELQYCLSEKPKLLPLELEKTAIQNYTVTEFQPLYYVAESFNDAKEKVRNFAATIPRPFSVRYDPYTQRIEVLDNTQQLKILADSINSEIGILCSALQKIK

Measured: binding result

B1: HULC 181-201 mimic (ssRNA)
RNA: CAAAAUGCAUAUGUAUCUUUG
binds: PAH F39L | PAH A300S | PAH I318T | PAH F55L | PAH P275L
